The values below come from the RNAGym collection of RNA variant scans (doi:10.7554/elife.90254).

First the molecules themselves.
B1: LINE1-full (parent)
chain: UACGUAGGUGGUUUUCCCCUGAUAGUGCUAAGGGGGCCUGGAAGUUUGGACUGGGCAGAGCUCAACACAGCGUGGCAAAGUGGCUGUGGCUAGACUGCCUCUCUGGAUUCCUCGUCACUCAGCAGGGCAUCUCUGAGAGAAAUGCC

The data set covers variants of B1. The data set can be described thus: self-cleavage, relative activity (ratio to wild type); higher = more cleavage; in vitro, sequencing; the parent is a self-cleaving ribozyme.
On to UACGUAGGUGGUUUUCCCCUGAUAGUGCUAAGGGGGCCUGGAAGUUUGGACUGGGCAGAGCUCAACACAGCGUGGCAAAGUGGCUGUGACUAGACUGCCUCUCUGGAUUCCUCGUCACUCAGCAGGGCAUCUUUGAGAGAAAUGCC [G89A C133U], for which the self-cleavage is 0.03.
In the case of UACGUAGGUGGUUUUCCCCUGAUAGUGCUAAGGGGGCCUGGAAGUUUGGACUGGGCAGAGCUCAACACAGCGUGGCAAAGUGGCUGUGACUAGACUGCCUCUCUGGAUUCCUCGUCUCUCAGCAGGGCAUCUCUGAGAGAAAUGCC [G89A A117U] it was 0.04; in that of UACGUAGGUGGUUUUCCCCUGAUAGUGCUAAGGGGGCCUGGAAGUUUGGACUGGGCAGAGCUCAACACAGCGUGGCAAAGUGGCUGUGACUAGACUGCCUCUCUGGAUUCCUCGUCACUCAGCAGGGCAUCCCUGAGAGAAAUGCC [G89A U132C], 0.06; in that of UACGUAGGUGGUUUUCCCCUGAUAGUGCUAAGGGGGCCUGGAAGUUUGGACUGGGCAGAGCUCAACACAGCGUGGCAAAGUGGCUGUGACUAGACUGCCUCUCUGGAUGCCUCGUCACUCAGCAGGGCAUCUCUGAGAGAAAUGCC [G89A U109G], 0.04.
As for UACGUAGGUGGUUUUCCCCUGAUAGUGCUAAGGGGGCCUGGAAGUUUGGACUGGGCAGAGCUCAACACAGCGUGGCAAAGUGGCUGUGACUAGACUGCCUCUCUGGAUUCCUCGUCACUCGGCAGGGCAUCUCUGAGAGAAAUGCC [G89A A121G], the self-cleavage came to 0.09.
In the case of UACGUAGGUGGUUUUCCCCUGAUAGUGCUAAGGGGGCCUGGAAGUUUGGACUGGGCAGAGCUCAACACAGCGUGGCAAAGUGGCUGUGACUAGACUGCCUCUCUGGAUUCCUCGUCACUCAGCAGGGCAUCUCUGAGAGGAAUGCC [G89A A140G] it was 0.06; in that of UACGUAGGUGGUUUUCCCCUGAUAGUGCUAAGGGGGCCUGGAAGUUUGGACUGGGCAGAGCUCAACACAGCGUGGCAAAGUGGCUGUUGCUAGACUGCCUCUCCGGAUUCCUCGUCACUCAGCAGGGCAUCUCUGAGAGAAAUGCC [G88U U104C], 0.05; in that of UACGUAGGUGGUUUUCCCCUGAUAGUGCUAAGGGGGCCUGGAAGUUUGGACUGGGCAGAGCUCAACACAGCGUGGCAAAGUGGCUGUGACUAGACUGCCUCCCUGGAUUCCUCGUCACUCAGCAGGGCAUCUCUGAGAGAAAUGCC [G89A U102C], 0.05.
For UACGUAGGUGGUUUUCCCCUGAUAGUGCUAAGGGGGCCUGGAAGUUUGGACUGGGCAGAGCUCAACACAGCGUGGCAAAGUGGCUGUGACCAGACUGCCUCUCUGGAUUCCUCGUCACUCAGCAGGGCAUCUCUGAGAGAAAUGCC [G89A U91C] the value was 0.05.
For UACGUAGGUGGUUUUCCCCUGAUAGUGCUAAGGGGGCCUGGAAGUUUGGACUGGGCAGAGCUCAACACAGCGUGGCAAAGUGGCUGUGCCUAGACUGCCUCUCUGGAUUCCUCGUCACUCAGCGGGGCAUCUCUGAGAGAAAUGCC [G89C A124G], the self-cleavage was found to be 0.08.
In the case of UACGUAGGUGGUUUUCCCCUGAUAGUGCUAAGGGGGCCUGGAAGUUUGGACUGGGCAGAGCUCAACACAGCGUGGCAAAGUGGCUGUGACUUGACUGCCUCUCUGGAUUCCUCGUCACUCAGCAGGGCAUCUCUGAGAGAAAUGCC [G89A A92U] it was 0.07; in that of UACGUAGGUGGUUUUCCCCUGAUAGUGCUAAGGGGGCCUGGAAGUUUGGACUGGGCAGAGCUCAACACAGCGUGGCAAAGUGGCUGUGACUAGACUGCCUCUCUGGAUUCCCCGUCACUCAGCAGGGCAUCUCUGAGAGAAAUGCC [G89A U112C], 0.05; in that of UACGUAGGUGGUUUUCCCCUGAUAGUGCUAAGGGGGCCUGGAAGUUUGGACUGGGCAGAGCUCAACACAGCGUGGCAAAGUGGCUGUGCCUAGACUGCCUCUCUGGAUUCCUCGUCACUCAGCAGGGCAUCUCUGAGAGAAAUGCC [G89C], 0.04.
On to UACGUAGGUGGUUUUCCCCUGAUAGUGCUAAGGGGGCCUGGAAGUUUGGACUGGGCAGAGCUCAACACAGCGUGGCAAAGUGGCUGUGACUAGACUGCCUCUCUGGAUUCCUCGUCACUCAGCAGGGCAUCUCUGAGAGAAAUGCC [G89A], for which the self-cleavage was 0.04.
On to UACGUAGGUGGUUUUCCCCUGAUAGUGCUAAGGGGGCCUGGAAGUUUGGACUGGGCAGAGCUCAACACAGCGUGGCAAAGUGGCUGUGACUAGACUGCCUCUCUGGGUUCCUCGUCACUCAGCAGGGCAUCUCUGAGAGAAAUGCC [G89A A107G], for which the self-cleavage was found to be 0.01.
As for UACGUAGGUGGUUUUCCCCUGAUAGUGCUAAGGGGGCCUGGAAGUUUGGACUGGGCAGAGCUCAACACAGCGUGGCAAAGUGGCUGUGACUAGACUGCCUCUCAGGAUUCCUCGUCACUCAGCAGGGCAUCUCUGAGAGAAAUGCC [G89A U104A], the self-cleavage worked out at 0.01.
With UACGUAGGUGGUUUUCCCCUGAUAGUGCUAAGGGGGCCUGGAAGUUUGGACUGGGCAGAGCUCAACACAGCGUGGCAAAGUGGCUGUGCCUAGACUGCCUCUCUGGAUUCCUCGUCACUCAGCAGGGCAUCUCUGAGGGAAAUGCC [G89C A138G], the self-cleavage was determined as 0.07.
As for UACGUAGGUGGUUUUCCCCUGAUAGUGCUAAGGGGGCCUGGAAGUUUGGACUGGGCAGAGCUCAACACAGCGUGGCAAAGUGGCUGUGACUAGACUGCCUCUCUGGAUUCCUCGUCACUCAGCAGGGCAUCUCUGAGAGAAAAGCC [G89A U143A], the self-cleavage is 0.05.
With UACGUAGGUGGUUUUCCCCUGAUAGUGCUAAGGGGGCCUGGAAGUUUGGACUGGGCAGAGCUCAACACAGCGUGGCAAAGUGGCUGUGACUAGACUGCCUCUCUGGAUUCCUCGUCACUCAGCAGGGCAUCUCUGAAAGAAAUGCC [G89A G137A], the self-cleavage was determined as 0.05.
For UACGUAGGUGGUUUUCCCCUGAUAGUGCUAAGGGGGCCUGGAAGUUUGGACUGGGCAGAGCUCAACACAGCGUGGCAAAGUGGCUGUGCCUAGACUGCCUCUCUGGAUUCCUCGUCACUCAGCAGGGCAUCUCUGGGAGAAAUGCC [G89C A136G] the value was 0.06.
